From paper PMC6114939
One block for each substance: values may come before it.

Legend:
p85α [1] = biological target: p85α (UniProt P27986); experiment: co-immunoprecipitation, immunoblot; settings: sites Y64
p85α [2] = biological target: p85α (UniProt P27986); experiment: His beads pull-down after kinase assay; settings: reference: WT His-PFKP with GST-EGFR; sites Y64

binding against the reference (p85α [1]; reference: WT Flag-rPFKP): lost
Substance: PFKP (platelet isoform of phosphofructokinase 1) (from UniProt Q01813) Flag-rPFKP Y64F

binding against the reference (p85α [2]): lost
Substance: PFKP (platelet isoform of phosphofructokinase 1) (from UniProt Q01813) His-PFKP Y64F with GST-EGFR

binding against the reference (p85α [1]; reference: wild-type tagged PFKP (presumed)): lost
Substance: PFKP (platelet isoform of phosphofructokinase 1) (from UniProt Q01813) Y64F
